Source: publication PMC3938326

Target: T1, hPh1 FCS domain (Polyhomeotic homolog 1) (human, UniProt P78364 783-828)
T1 chain: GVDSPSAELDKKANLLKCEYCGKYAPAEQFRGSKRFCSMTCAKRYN
Assay: NMR HSQC titration

Work on GGGCACGCGUAUUGCCCUAGUGGCCGGCGUGCCC (structured_RNA) [34nt RNA] yielded a Kd of 3 ± 1.1 mM.
